Assay results from IntAct's records for PubMed 9528782.

B1: DBF2 kinase activator protein MOB1 (Saccharomyces cerevisiae), P40484 (parent)
chain: MSFLQNFHISPGQTIRSTRGFKWNTANAANNAGSVSPTKATPHNNTINGNNNNANTINNRADFTNNPVNGYNESDHGRMSPVLTTPKRHAPPPEQLQNVTDFNYTPSHQKPFLQPQAGTTVTTHQDIKQIVEMTLGSEGVLNQAVKLPRGEDENEWLAVHCVDFYNQINMLYGSITEFCSPQTCPRMIATNEYEYLWAFQKGQPPVSVSAPKYVECLMRWCQDQFDDESLFPSKVTGTFPEGFIQRVIQPILRRLFRVYAHIYCHHFNEILELNLQTVLNTSFRHFCLFAQEFELLRPADFGPLLELVMELRDR
partner: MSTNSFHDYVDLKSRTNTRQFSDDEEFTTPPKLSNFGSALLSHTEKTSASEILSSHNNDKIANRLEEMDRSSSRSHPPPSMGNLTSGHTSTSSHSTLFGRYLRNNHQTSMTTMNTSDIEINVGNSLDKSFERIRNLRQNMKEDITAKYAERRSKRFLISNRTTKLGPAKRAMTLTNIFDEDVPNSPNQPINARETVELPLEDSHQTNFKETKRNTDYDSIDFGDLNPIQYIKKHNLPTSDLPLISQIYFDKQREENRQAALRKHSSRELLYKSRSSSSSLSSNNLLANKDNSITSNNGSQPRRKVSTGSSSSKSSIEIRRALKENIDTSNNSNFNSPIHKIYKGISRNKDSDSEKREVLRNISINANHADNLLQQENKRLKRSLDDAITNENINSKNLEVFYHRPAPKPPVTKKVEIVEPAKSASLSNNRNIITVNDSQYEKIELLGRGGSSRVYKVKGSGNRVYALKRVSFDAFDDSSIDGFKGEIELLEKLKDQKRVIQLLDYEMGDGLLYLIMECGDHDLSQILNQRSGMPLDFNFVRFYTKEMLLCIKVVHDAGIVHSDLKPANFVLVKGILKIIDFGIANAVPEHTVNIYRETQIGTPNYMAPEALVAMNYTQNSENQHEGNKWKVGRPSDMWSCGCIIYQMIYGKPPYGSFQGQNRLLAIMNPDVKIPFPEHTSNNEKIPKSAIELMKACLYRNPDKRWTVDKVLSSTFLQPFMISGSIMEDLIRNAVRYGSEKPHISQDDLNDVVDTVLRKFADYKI
B2: DBF2 kinase activator protein MOB1 (Saccharomyces cerevisiae), P40484 (parent)
chain: B1 chain
partner: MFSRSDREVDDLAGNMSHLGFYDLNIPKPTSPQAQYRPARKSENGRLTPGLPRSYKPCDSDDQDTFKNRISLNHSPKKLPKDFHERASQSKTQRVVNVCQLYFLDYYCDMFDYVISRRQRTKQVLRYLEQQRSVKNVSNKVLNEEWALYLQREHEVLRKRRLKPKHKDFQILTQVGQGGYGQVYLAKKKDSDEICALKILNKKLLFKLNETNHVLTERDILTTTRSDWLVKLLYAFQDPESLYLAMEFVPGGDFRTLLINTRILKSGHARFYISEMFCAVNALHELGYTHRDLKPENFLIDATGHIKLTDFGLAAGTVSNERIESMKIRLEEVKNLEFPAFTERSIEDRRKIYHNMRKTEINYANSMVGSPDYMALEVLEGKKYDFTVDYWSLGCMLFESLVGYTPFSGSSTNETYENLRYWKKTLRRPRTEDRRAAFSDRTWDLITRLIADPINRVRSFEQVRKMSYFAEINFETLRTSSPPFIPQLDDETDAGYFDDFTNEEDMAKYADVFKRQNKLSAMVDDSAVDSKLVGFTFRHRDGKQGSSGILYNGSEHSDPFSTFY
B3: DBF2 kinase activator protein MOB1 (Saccharomyces cerevisiae), P40484 (parent)
chain: B1 chain
partner: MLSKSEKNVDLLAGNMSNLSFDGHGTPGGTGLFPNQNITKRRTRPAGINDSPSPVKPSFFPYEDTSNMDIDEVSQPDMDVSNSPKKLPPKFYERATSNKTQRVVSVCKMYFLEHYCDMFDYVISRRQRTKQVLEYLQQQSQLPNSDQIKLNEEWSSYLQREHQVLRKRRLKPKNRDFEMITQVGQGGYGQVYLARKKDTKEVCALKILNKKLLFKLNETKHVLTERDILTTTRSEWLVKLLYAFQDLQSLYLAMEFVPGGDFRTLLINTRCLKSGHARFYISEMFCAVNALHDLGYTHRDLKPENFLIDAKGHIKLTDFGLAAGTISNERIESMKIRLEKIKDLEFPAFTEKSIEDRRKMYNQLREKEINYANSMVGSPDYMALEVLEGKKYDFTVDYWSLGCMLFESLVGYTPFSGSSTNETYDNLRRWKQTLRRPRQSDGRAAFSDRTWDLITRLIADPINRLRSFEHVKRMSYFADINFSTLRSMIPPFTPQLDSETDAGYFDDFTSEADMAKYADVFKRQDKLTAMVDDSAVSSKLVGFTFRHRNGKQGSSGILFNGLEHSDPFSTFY

Variants of: B1
Conditions: with mps1_yeast MPS1, P54199

Row | Variant | effect of a mutation on the interaction
1 | MSFLQNFHISPGQTIRSTRGFKWNTANAANNAGSVSPTKATPHNNTINGNNNNANTINNRADFTNNPVNGYNESDHGRMSPVLTTPKRHAPPPEQLQNVTDFNYTPSHQKPFLQPQAGTTVTTHQDIKQIVEMTLGSEGVLNQAVKLPRGEDENEWPIVHCVDFYNQINMLYGSITEFCSPQTCPRMIATNEYEYLWAFQKGQPPVSVSAPKYVECLMRWCQDQFDDESLFPSKVTGTFPEGFIQRVIQPILRRLFRVYAHIYCHHFNEILELNLQTVLNTSFRHFCLFAQEFELLRPADFGPLLELVMELRDR [L157P;A158I] | with no effect
2 | MSFLQNFHISPGQTIRSTRGFKWNTANAANNAGSVSPTKATPHNNTINGNNNNANTINNRADFTNNPVNGYNESDHGRMSPVLTPPKRHAPPPEQLQNVTDFNYTPSHQKPFLQPQAGTTVTTHQDIKQIVEMTLGSEGVLNQAVKLPRGEDENEWLAVHCVDFYNRINMLYGSITEFCSPQHCPRMIATNEYEYLWAFQKGQPPVSVSAPKYVECLMRWCQDQFDDESLFPSKVTGTFPEGFIQRVIQPILRRLFRVYAHIYCHHFNEILELNLQTVLNTSFRHFCLFAQEFELLRPADFGPLLELVMELRDR [T85P;Q167R;T183H] | decreasing interaction strength
3 | MSFLQNFHISPGQTIRSTRGFKWNTANAANNAGSVSPTKATPHNNTINGNNNNANTINNRADFTNNPVNGYNESDHGRMSPVLTTPKRHAPPPEQLQNVTDFNYTPSHQKPFLQPQAGTTVTTHQDIKQIVEMTLGSEGVLNQAVKLPRGKDENEWLAVHCVDFYNQINMLYGSITEFCSPQTCPRMIATNEYEYLWAFQKGQPPVSVSAPKYVECLMRWCQDQFDDESLFPSKVTGTFPEGFIQRVIQPILRRLFRVYAHIYCHHFNEILELNLQTVLNTSFRHFCLFAQEFELLRPADFGPLLELVMELRDR [E151K] | with no effect

Variants of: B2
Conditions: with dbf20_yeast DBF20, P32328

Row | Variant | effect of a mutation on the interaction
4 | MSFLQNFHISPGQTIRSTRGFKWNTANAANNAGSVSPTKATPHNNTINGNNNNANTINNRADFTNNPVNGYNESDHGRMSPVLTTPKRHAPPPEQLQNVTDFNYTPSHQKPFLQPQAGTTVTTHQDIKQIVEMTLGSEGVLNQAVKLPRGKDENEWLAVHCVDFYNQINMLYGSITEFCSPQTCPRMIATNEYEYLWAFQKGQPPVSVSAPKYVECLMRWCQDQFDDESLFPSKVTGTFPEGFIQRVIQPILRRLFRVYAHIYCHHFNEILELNLQTVLNTSFRHFCLFAQEFELLRPADFGPLLELVMELRDR [E151K] | disrupting interaction strength
5 | MSFLQNFHISPGQTIRSTRGFKWNTANAANNAGSVSPTKATPHNNTINGNNNNANTINNRADFTNNPVNGYNESDHGRMSPVLTPPKRHAPPPEQLQNVTDFNYTPSHQKPFLQPQAGTTVTTHQDIKQIVEMTLGSEGVLNQAVKLPRGEDENEWLAVHCVDFYNRINMLYGSITEFCSPQHCPRMIATNEYEYLWAFQKGQPPVSVSAPKYVECLMRWCQDQFDDESLFPSKVTGTFPEGFIQRVIQPILRRLFRVYAHIYCHHFNEILELNLQTVLNTSFRHFCLFAQEFELLRPADFGPLLELVMELRDR [T85P;Q167R;T183H] | disrupting interaction strength
6 | MSFLQNFHISPGQTIRSTRGFKWNTANAANNAGSVSPTKATPHNNTINGNNNNANTINNRADFTNNPVNGYNESDHGRMSPVLTTPKRHAPPPEQLQNVTDFNYTPSHQKPFLQPQAGTTVTTHQDIKQIVEMTLGSEGVLNQAVKLPRGEDENEWPIVHCVDFYNQINMLYGSITEFCSPQTCPRMIATNEYEYLWAFQKGQPPVSVSAPKYVECLMRWCQDQFDDESLFPSKVTGTFPEGFIQRVIQPILRRLFRVYAHIYCHHFNEILELNLQTVLNTSFRHFCLFAQEFELLRPADFGPLLELVMELRDR [L157P;A158I] | disrupting interaction strength

Variants of: B3
Conditions: with dbf2_yeast DBF2, P22204

Row | Variant | effect of a mutation on the interaction
7 | MSFLQNFHISPGQTIRSTRGFKWNTANAANNAGSVSPTKATPHNNTINGNNNNANTINNRADFTNNPVNGYNESDHGRMSPVLTTPKRHAPPPEQLQNVTDFNYTPSHQKPFLQPQAGTTVTTHQDIKQIVEMTLGSEGVLNQAVKLPRGKDENEWLAVHCVDFYNQINMLYGSITEFCSPQTCPRMIATNEYEYLWAFQKGQPPVSVSAPKYVECLMRWCQDQFDDESLFPSKVTGTFPEGFIQRVIQPILRRLFRVYAHIYCHHFNEILELNLQTVLNTSFRHFCLFAQEFELLRPADFGPLLELVMELRDR [E151K] | disrupting interaction strength
8 | MSFLQNFHISPGQTIRSTRGFKWNTANAANNAGSVSPTKATPHNNTINGNNNNANTINNRADFTNNPVNGYNESDHGRMSPVLTPPKRHAPPPEQLQNVTDFNYTPSHQKPFLQPQAGTTVTTHQDIKQIVEMTLGSEGVLNQAVKLPRGEDENEWLAVHCVDFYNRINMLYGSITEFCSPQHCPRMIATNEYEYLWAFQKGQPPVSVSAPKYVECLMRWCQDQFDDESLFPSKVTGTFPEGFIQRVIQPILRRLFRVYAHIYCHHFNEILELNLQTVLNTSFRHFCLFAQEFELLRPADFGPLLELVMELRDR [T85P;Q167R;T183H] | decreasing interaction strength
9 | MSFLQNFHISPGQTIRSTRGFKWNTANAANNAGSVSPTKATPHNNTINGNNNNANTINNRADFTNNPVNGYNESDHGRMSPVLTTPKRHAPPPEQLQNVTDFNYTPSHQKPFLQPQAGTTVTTHQDIKQIVEMTLGSEGVLNQAVKLPRGEDENEWPIVHCVDFYNQINMLYGSITEFCSPQTCPRMIATNEYEYLWAFQKGQPPVSVSAPKYVECLMRWCQDQFDDESLFPSKVTGTFPEGFIQRVIQPILRRLFRVYAHIYCHHFNEILELNLQTVLNTSFRHFCLFAQEFELLRPADFGPLLELVMELRDR [L157P;A158I] | disrupting interaction strength
